T1: human monocarboxylate transporter 1 (MCT1) (human, UniProt P53985 1-500)
T1 construct: Multi-pass transmembrane transporter, endogenous on HEK WT / HEK293T cells and on primary human T and B cells in the assays; also called human MCT1; SLC16A1
T1 sequence: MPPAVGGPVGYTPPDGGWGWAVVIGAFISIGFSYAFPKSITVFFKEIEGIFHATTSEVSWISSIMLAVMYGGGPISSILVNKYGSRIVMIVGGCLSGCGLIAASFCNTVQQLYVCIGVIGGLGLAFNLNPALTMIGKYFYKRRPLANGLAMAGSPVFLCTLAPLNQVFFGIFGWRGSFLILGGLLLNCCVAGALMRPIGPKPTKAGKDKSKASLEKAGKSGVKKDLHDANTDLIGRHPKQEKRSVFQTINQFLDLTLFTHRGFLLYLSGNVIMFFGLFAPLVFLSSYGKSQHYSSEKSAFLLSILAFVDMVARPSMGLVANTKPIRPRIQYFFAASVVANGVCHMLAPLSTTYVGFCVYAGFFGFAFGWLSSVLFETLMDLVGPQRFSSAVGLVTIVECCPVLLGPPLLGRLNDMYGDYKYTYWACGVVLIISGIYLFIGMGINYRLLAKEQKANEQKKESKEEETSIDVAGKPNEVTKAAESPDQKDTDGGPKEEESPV

B1: anti-human MCT1 antibody Ab6 (antibody, human IgG1, kappa)
heavy: QVQLVQSGAEVKKPGASVKVSCTVSGRSLTNYHLQWVRQAPGQGLEWMGFIRSSGNTEYNSRFKSRVTMTRDTSTSTVYMELSSLRSEDTAVYYCARNRWYHGTYYSPGYYVMDAWGQGTLVTVSSASTKGPSVFPLAPSSKSTSGGTAALGCLVKDYFPEPVTVSWNSGALTSGVHTFPAVLQSSGLYSLSSVVTVPSSSLGTQTYICNVNHKPSNTKVDKRVEPKSCDKTHTCPPCPAPEAEGAPSVFLFPPKPKDTLMISRTPEVTCVVVDVSHEDPEVKFNWYVDGVEVHNAKTKPREEQYNSTYRVVSVLTVLHQDWLNGKEYKCKVSNKALPSSIEKTISKAKGQPREPQVYTLPPSREEMTKNQVSLTCLVKGFYPSDIAVEWESNGQPENNYKTTPPVLDSDGSFFLYSKLTVDKSRWQQGNVFSCSVMHEALHNHYTQKSLSLSPGK
light: EIVLTQSPGTLSLSPGERATLSCKGSQNIENYLAWYQQKPGQAPRLLIYNRHNLQTGIPDRFSGSGSGTDFTLTISRLEPEDFAVYYCYQYSDGYTFGGGTKVEIKRTVAAPSVFIFPPSDEQLKSGTASVVCLLNNFYPREAKVQWKVDNALQSGNSQESVTEQDSKDSTYSLSSTLTLSKADYEKHKVYACEVTHQGLSSPVTKSFNRGEC
notes: IgG1EN backbone
B2: INX444 IgG1EN (antibody)
heavy: QVQLKESGPGLVKPSQTLSLTCTVSGFSLTNYHLQWVRQPPGKGLEWIGFIRSSGNTEYNPSLKSRVTISRDTSKNQVSLKLSSVTAADTAVYYCARKRWVHGTWYSPGYYVMDAWGQGTLVTVSSASTKGPSVFPLAPSSKSTSGGTAALGCLVKDYFPEPVTVSWNSGALTSGVHTFPAVLQSSGLYSLSSVVTVPSSSLGTQTYICNVNHKPSNTKVDKRVEPKSCDKTHTCPPCPAPEAEGAPSVFLFPPKPKDTLMISRTPEVTCVVVDVSHEDPEVKFNWYVDGVEVHNAKTKPREEQYNSTYRVVSVLTVLHQDWLNGKEYKCKVSNKALPSSIEKTISKAKGQPREPQVYTLPPSREEMTKNQVSLTCLVKGFYPSDIAVEWESNGQPENNYKTTPPVLDSDGSFFLYSKLTVDKSRWQQGNVFSCSVMHEALHNHYTQKSLSLSPGK
light: DIQLTQSPSAMSASVGDRVTITCRASQGISNYLAWYQQKPGKAPKLLIYAASTLQSGVASRFSGRGSGTDFTLTISSLQPEDFATYYCQQSDILPYTFGQGTKVEIKRTVAAPSVFIFPPSDEQLKSGTASVVCLLNNFYPREAKVQWKVDNALQSGNSQESVTEQDSKDSTYSLSSTLTLSKADYEKHKVYACEVTHQGLSSPVTKSFNRGEC
notes: INX444 of WO19136300 converted to the IgG1EN backbone (L234A, L235E, G237A, A330S, P331S, EU numbering)

Assays:
[1] = molecular target: T1, human monocarboxylate transporter 1 …; experiment: competition MSD binding assay, antibody titrated with HEK WT cells expressing MCT1, apparent KD, screening at 25 C
Method: The mix was incubated at 37° C. for 1-2 days. After incubation, the incubated samples were spun down for 5 min at 500×g to remove cells. A 96-well multi-array plate (Meso Scale Diagnostics, Cat. #L15XA-3) was coated at 4° C. overnight with 1 μg/mL of goat anti human FC in phosphate buffered saline (PBS). Following coating, plates were washed 3 times with 150 μL PBST (PBS with 0.05% Tween 20) and blocked with 150 μL/well of PBS 3% blocker A buffer (Cat #R93BA-1) at 25° C. for 1 hr. Plates were then washed 3 times with PBST. 50 μL of the preincubated antibody: cell dilution series was transferred to the wells and incubated at 25° C. with 700 rpm shaking for 1 hr. Plates were washed 3 times with PBST. Then 100 μL of 1 μg/mL anti-human kappa-biotin antibody (Cat. #2060-08) was added, and plates were incubated at 25° C. with 700 rpm shaking […]. Plates were washed 3 times with PBST, followed by addition of 100 μL of 1 μg/mL MSD Sulfo-tag streptavidin antibody (Meso Scale Diagnostics Cat. #R32 AD1), and plates were incubated at 25° C. with 700 rpm shaking for 1 hr. Plates were washed 3 times with PBST, 150 μL/well of 1× Read Buffer T was added to the wells and analyzed on a SECTOR® Imager 6000 (Meso Scale Diagnostics) 15 min after buffer addition. The apparent KD is determined by fitting a sigmoidal curve to the electrochemiluminescence (ECL) response vs. log (MCT1 receptor concentration) using assay development tool kit graphed with normalized ECL values.

[2] = molecular target: T1, human monocarboxylate transporter 1 …; experiment: cell-based or functional assay
[3] = molecular target: T1, human monocarboxylate transporter 1 …; experiment: competition MSD binding assay, antibody titrated with HEK WT cells expressing MCT1, apparent KD, 37 C, average of triplicate
Text: Plates were then washed 3 times with PBST. […] Plates were washed 3 times with PBST.

Human C1q = molecular target: T2, Human C1q (human, UniProt P02745 23-245; P02746 28-253; P02747 29-245); experiment: ELISA, antibody coated on plate, human C1q detected with anti-human C1q-HRP (results not shown)
T2 construct: Bought (MS Biomedical); also called complement component C1q

[4] = molecular target: T1, human monocarboxylate transporter 1 …; experiment: cell-based or functional assay; remark: listed apart in the source
[5] = molecular target: T1, human monocarboxylate transporter 1 …; experiment: cell-based or functional assay; remark: listed apart in the source
[6] = molecular target: T3, human FcγRI (CD64) extracellular domain (human, UniProt P12314 16-292); experiment: SPR (Biacore T100), antibody captured on Protein A, FcγR ECD as analyte, 25 C
T3 construct: extracellular domain; also called FcγRI ECD
Method: Unreacted sites were blocked with a 7 minute injection of ethanolamine at 10 μL/minute. […] FC1 was the reference FC, therefore no antibody was captured in FC1. […] Regeneration was performed by injecting 15 μL of 10 mM glycine, pH 1.5, at 30 μL/minute over all FCs. […] The affinity (KD) was calculated using either steady state equilibrium analysis with the Scrubber 2 Biacore Evaluation Software or a “1:1 (Langmuir) binding” model in BIA Evaluation. […] Duplicate injections of each concentration were injected over all FCs at 40 μL/minute for 60 seconds followed by a 120 second dissociation phase. […] The affinity (KD) was calculated using the steady state equilibrium analysis with the Scrubber 2 Biacore Evaluation Software.

T2 sequence (P02745 23-245 limits assumed, chain 1 of 3): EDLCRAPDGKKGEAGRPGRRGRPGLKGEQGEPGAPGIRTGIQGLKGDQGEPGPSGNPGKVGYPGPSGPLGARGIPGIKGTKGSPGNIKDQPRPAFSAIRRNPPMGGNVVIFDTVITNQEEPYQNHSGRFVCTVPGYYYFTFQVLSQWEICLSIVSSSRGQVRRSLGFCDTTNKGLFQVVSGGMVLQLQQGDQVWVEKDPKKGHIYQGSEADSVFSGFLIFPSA
T2 sequence (P02746 28-253 limits assumed, chain 2 of 3): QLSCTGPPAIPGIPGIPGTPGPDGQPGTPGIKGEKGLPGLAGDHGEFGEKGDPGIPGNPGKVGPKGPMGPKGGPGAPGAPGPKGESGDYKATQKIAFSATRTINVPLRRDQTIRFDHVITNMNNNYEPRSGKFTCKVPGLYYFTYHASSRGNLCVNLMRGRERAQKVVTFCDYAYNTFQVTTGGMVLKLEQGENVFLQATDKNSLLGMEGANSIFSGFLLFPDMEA
T2 sequence (P02747 29-245 limits assumed, chain 3 of 3): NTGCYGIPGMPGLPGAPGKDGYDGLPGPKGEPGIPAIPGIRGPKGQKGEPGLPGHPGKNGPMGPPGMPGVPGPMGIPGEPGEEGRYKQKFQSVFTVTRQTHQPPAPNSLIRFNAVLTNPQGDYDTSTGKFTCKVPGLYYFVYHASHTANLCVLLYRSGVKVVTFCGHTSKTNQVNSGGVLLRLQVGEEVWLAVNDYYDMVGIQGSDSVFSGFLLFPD
T3 sequence (P12314 16-292): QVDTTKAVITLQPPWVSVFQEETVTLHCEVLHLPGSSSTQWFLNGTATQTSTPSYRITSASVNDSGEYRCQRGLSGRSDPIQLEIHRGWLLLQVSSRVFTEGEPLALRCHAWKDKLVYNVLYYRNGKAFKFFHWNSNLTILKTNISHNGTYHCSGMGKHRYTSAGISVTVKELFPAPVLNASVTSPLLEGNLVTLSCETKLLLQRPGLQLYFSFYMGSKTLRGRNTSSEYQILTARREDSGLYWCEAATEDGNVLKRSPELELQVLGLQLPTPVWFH

Row | Binder | Kd [1] | IC50 of inhibition of B cell proliferation, Average of 3 donors [2] | IC50 of inhibition of B cell proliferation, Donor1 [2] | IC50 of inhibition of B cell proliferation, Donor3 [2] | Kd [3] | binding result (Human C1q) | IC50 of inhibition of MCT1 mediated transport (bromopyruvate assay, HEK293T cells) [4] | IC50 of inhibition of CD4 T cell proliferation [5] | IC50 of inhibition of CD8 T cell proliferation [5] | binding result [6]
1 | B1 | 1.27 nM | 2.95 nM | 3.06 nM | 3.38 nM | 0.59 nM | no binding | 25 nM | 3 nM | 3 nM | –
2 | B2 | – | – | – | – | – | – | – | – | – | no binding (tested: 200 nM)

Reference: patent publication US20230111363A1 (LMMUNOMETABOLISM DEVELOPMENT, published 2023)
